This note sets out measurements from US20130149305A1 (UNIVERSITY OF MARYLAND BALTIMORE COUNTY, published 2013).

The target of assay [1] is human CD28 on PHA-activated T cells of PBMC (human) (UniProt P10747). The experiment in a line: cell-based or functional assay.
Assay [2] deals with T1, mouse PDL1 co-expressed with mouse CD80 on CD80-transfected 4T1 cells (4T1/CD80) (mouse, UniProt Q9EP73 19-290; Q00609 38-306).
T1 construct: whole, on cells; also called PDL1 on 4T1/CD80 cells; PDL1+CD80+ 4T1/CD80 cells
The experiment in a line: flow cytometry on IFN-gamma-treated cells, sPD1-Fc detected with anti-PD1-APC. For orientation: In flow cytometry, cells or beads pass a laser one at a time.

Sequence of human CD28 on PHA-activated T cells of PBMC (human) (P10747 19-220): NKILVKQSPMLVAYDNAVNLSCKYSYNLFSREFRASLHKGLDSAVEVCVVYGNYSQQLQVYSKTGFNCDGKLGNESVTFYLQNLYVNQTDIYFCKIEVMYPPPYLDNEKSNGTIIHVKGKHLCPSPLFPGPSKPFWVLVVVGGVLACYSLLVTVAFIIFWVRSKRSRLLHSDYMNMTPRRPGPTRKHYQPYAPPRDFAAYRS
T1 sequence (Q9EP73 19-290, chain 1 of 2): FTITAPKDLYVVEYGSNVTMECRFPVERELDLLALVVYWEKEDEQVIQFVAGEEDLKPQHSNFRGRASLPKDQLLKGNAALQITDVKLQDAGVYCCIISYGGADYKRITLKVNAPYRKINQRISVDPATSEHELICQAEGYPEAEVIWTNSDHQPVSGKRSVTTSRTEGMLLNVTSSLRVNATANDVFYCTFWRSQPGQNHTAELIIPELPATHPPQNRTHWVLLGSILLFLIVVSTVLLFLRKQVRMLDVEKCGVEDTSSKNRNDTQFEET
T1 sequence (Q00609 38-306, chain 2 of 2): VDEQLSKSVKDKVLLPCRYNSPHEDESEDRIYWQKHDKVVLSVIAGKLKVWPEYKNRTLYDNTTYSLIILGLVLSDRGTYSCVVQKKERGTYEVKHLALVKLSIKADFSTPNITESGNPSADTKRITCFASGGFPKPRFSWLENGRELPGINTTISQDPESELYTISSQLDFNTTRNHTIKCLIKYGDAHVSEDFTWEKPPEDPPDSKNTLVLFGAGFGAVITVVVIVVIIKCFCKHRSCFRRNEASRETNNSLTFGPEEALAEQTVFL

For the molecule “soluble CD80-Fc: extracellular two domains of human CD80 fused to the Fc domain of IgG1 (Fc fusion)”, the increase of IFNγ production by PHA-activated PBMC, no tumor cells (ELISA) in assay [1] lay in the range of 14 to 28%.

B1: recombinant mouse PD1-Fc fusion protein (Fc fusion, UniProt Q02242 25-167, looked up)
chain: LEVPNGPWRSLTFYPAWLTVSEGANATFTCSLSNWSEDLMLNWNRLSPSNQTEKQAAFCNGLSQPVQDARFQIIQLPNRHDFHMNILDTRRNDSGIYLCGAISLHPKAKIEESPGAELVVTERILETSTRYPSPSPKPEGRFQ
notes: Recombinant reagent; also called sPD1-Fc (mouse); soluble form of PD1; not shown: Fc part
On to B1, for which the binding result in assay [2] is given as “no binding”.
